Tested on: Substrate oligonucleotide SEQ ID NO:30
Test: RNase testing of commercially obtained reagents, visual detection
Format: biochemical
Set-up: key: +++ = maximum intensity; ++ = moderate intensity; + = faint but above background; − = negative (identical to background)
Settings: reagent diluted 1:10 with Assay Buffer, 50 pmoles Substrate SEQ ID NO:30, 60 minutes at 37° C., UV
Procedure: Enzymes were obtained from New England Biolabs (NEB) or Ambion as indicated. Test sample (10 ul) was mixed with 1× buffer (90 ul) for a final volume of 100 ul with 50 pmoles of Substrate SEQ ID NO:30 in 0.5 ml RNase-free microtubes. Assay Mixes were incubated 60 minutes at 37° C. and visually examined under UV excitation for fluorescence emission. After scoring for results, 1 ul (1 ug) of RNase A was added to each tube. The Assay was incubated an additional 5 minutes at 37° C. and re-scored. The addition of RNase A represents a control for the absence of an Assay inhibitor and validates negative results. The “plus RNase A” control was omitted whenever the primary assay was already positive.
Table 9: RNase testing of commercially available reagents. A series of commercially available reagents were diluted 1:10 with Assay Buffer to a final volume of 100 ul. An RNase detection assay was performed using the method of the invention with Substrate oligonucleotide SEQ ID NO:30. Reactions were examined for fluorescence emission by visual inspection using an ultraviolet (UV) light source for excitation. Results were scored as +++, ++, +, or − based on relative signal intensity. As a control, RNase A (1 ug) was added to negative reactions and the Assay was re-scored. ND=not done.

B1: RNase 1: commercial enzyme reagent from Ambion, tested for RNase activity (protein, UniProt P21338 24-268, looked up)
Ribonuclease I: LALQAKQYGDFDRYVLALSWQTGFCQSQHDRNRNERDECRLQTETTNKADFLTVHGLWPGLPKSVAARGVDERRWMRFGCATRPIPNLPEARASRMCSSPETGLSLETAAKLSEVMPGAGGRSCLERYEYAKHGACFGFDPDAYFGTMVRLNQEIKESEAGKFLADNYGKTVSRRDFDAAFAKSWGKENVKAVKLTCQGNPAYLTEIQISIKADAINAPLSANSFLPQPHPGNCGKTFVIDKAGY
Assay Results (RNase activity in reagent, relative signal intensity): +++

B2: RNase A: commercial enzyme reagent from Ambion, tested for RNase activity (protein, UniProt P61823 27-150, looked up)
Ribonuclease pancreatic: KETAAAKFERQHMDSSTSAASSSNYCNQMMKSRNLTKDRCKPVNTFVHESLADVQAVCSQKNVACKNGQTNCYQSYSTMSITDCRETGSSKYPNCAYKTTQANKHIIVACEGNPYVPVHFDASV
Assay Results (RNase activity in reagent, relative signal intensity): +++

B3: Bam HI: commercial enzyme from New England Biolabs, sold as RNase-free (protein, UniProt P23940 1-213, looked up)
Type II restriction enzyme …: MEVEKEFITDEAKELLSKDKLIQQAYNEVKTSICSPIWPATSKTFTINNTEKNCNGVVPIKELCYTLLEDTYNWYREKPLDILKLEKKKGGPIDVYKEFIENSELKRVGMEFETGNISSAHRSMNKLLLGLKHGEIDLAIILMPIKQLAYYLTDRVTNFEELEPYFELTEGQPFIFIGFNAEAYNSNVPLIPKGSDGMSKRSIKKWKDKVENK
Assay Results (RNase activity in reagent, relative signal intensity): −

B4: Proteinase K: commercial enzyme reagent from Ambion, sold as RNase-free (protein, UniProt P06873 106-384, looked up)
Proteinase K: AAQTNAPWGLARISSTSPGTSTYYYDESAGQGSCVYVIDTGIEASHPEFEGRAQMVKTYYYSSRDGNGHGTHCAGTVGSRTYGVAKKTQLFGVKVLDDNGSGQYSTIIAGMDFVASDKNNRNCPKGVVASLSLGGGYSSSVNSAAARLQSSGVMVAVAAGNNNADARNYSPASEPSVCTVGASDRYDRRSSFSNYGSVLDIFGPGTSILSTWIGGSTRSISGTSMATPHVAGLAAYLMTLGKTTAASACRYIADTANKGDLSNIPFGTVNLLAYNNYQA
Assay Results (RNase activity in reagent, relative signal intensity): −

B5: RNase T1: commercial enzyme reagent from Ambion, tested for RNase activity (protein, UniProt P00651 27-130, looked up)
Guanyl-specific ribonuclease …: ACDYTCGSNCYSSSDVSTAQAAGYQLHEDGETVGSNSYPHKYNNYEGFDFSVSSPYYEWPILSSGDVYSGGSPGADRVVFNENNQLAGVITHTGASGNNFVECT
Assay Results (RNase activity in reagent, relative signal intensity): +++
